# Reference: a protein production outcome set (Wang et al. 2014)
# Experiment: label from the status in PepcDB records
row,Sequence,protein production
1,MLLEVIPLTLPLLLTLLPIVVILVMLLVFRKAADVSGIIGWLAISVVAWLGFQTAPEVILRSTAAGFIRSFSVSLIVATSLLQMALMEKTGALRRITIFIRTIASDNRAVQIMMINIGFGTLMVAVGATPVSILPPILLAMGYSTYVAIALPAIGYDSLCTYALLGAPIVVFVDIANSFLGKGNEIALHQAGMVFYMFLPVVSTMIGFCMLWIVGKWQAIRDGWLPCLLTGAVIGVVARFTNQYDNLVVLTGVLCGIAVIAAMAAYLVVTGGKVIDRSLLSAEEREFAAAMPLWRAFMPWTLLVILILVLNVPQDLFSWLYRTMKLPIAGLTADGKPLDTRALWQAYTWILVSTILAVPFLKPTGEQLRETVRTWVRRAPRPVFAAAVFFAIGEIMNMAGYDMAAGRFVVPSMVTVLADSSALAFQGMYGEVVAFIGLFGGFITGSEASTIAMFAKYTMTTAKNLDMPLSGLIIVTAGLAFGGGLASVISPAKLQNAAAAIDRIGEEGKVIRIAFVFALLLTLVTSLFVVVLLTVNGMGRVS,failed
2,MLLFEQPVDLEKNNEDDTNIKPFAISRHFLLKLLLCGIILIELLLYSKCPKPIDNGPRTIANRSNTYFNGTHDFKTLTILISIDGFHPRLIDAKYTPFLYNLHNLRSPYDMNITTAPYMIPSFPTQTFPNHWSMVTGKYPIEHGIVSNIFWDNFTSSEFRPNNLDARIWSNTADPIWQLLQTESQGEYKVATHMWPGSEVVYEDHGDVPRERMPFYFGKFNQWEKLQDKLAQIFRYIDMPQLKDRPELVISYIPNVDSYGHSFGYDLRDKRLQKLIGEVDGFFLDLIEGLQKRNLLKISNVMIVSDHGMSNVNANDGEHVVVWERVFPADAMSAFISHLYNEGPMMMVCLKNPRDKQWICDLIEAQLEKAYGDEISRKFHVILKEDFDPSWKYFQYDNRKHRYDDRVGDIWILADEYYAIVKEMGDVPIGIMGTHGYNFNNCSDMASIFIGMGPMFNNEVVPPFENIEVYNMLIKASALLGEEKTKKEKSLLQ,failed
3,MLLHNGPMKLAEALIERADLQKRAAQLEERLVQNMQVQEGEVPAEDPRELLNELLTVSSALEVLLPRIHRANLSATLPSGQTLTDALTRRDLLDARLKALRRAATAAAERQTRYSNSELRMVAVIPPSELQKLADVMAKERRELEVQIQQANWQTDLPGSGALEHHHHHH,not failed
4,MLLQKSKVLVLNASYEPLSICDARNAVLLLFCGKAMMVASHPEHRIRTVTENFPLPSIVRLMVYVRIDYRGAVLNRKNLFRRDGFRCQYCGCKDGSLTVDHVMPKSRGGEDTWENLITACKSCNTKKGNRTPSEAGMAMLNKPCRPSNITLMRQHYRSISDEWKPYLFMS,failed
5,MLLRLPLLDLTPLPAPFYELAKDVEQSLITDPEKAREVAAKLHAATDTAQGLHRAYAELLLARTLLSTRQWQAALESFEKARKSLLALERAALVAHAVLGRVYILLGTGQYAEASAEAAELEAQLANGPVQAMEIRALALNAIAYAEYAQGRPVQAINHLKEALKLREQLSPIIIAACLCNLGISNIEQGNYREAIYWLMEAYRAHPDSNEDRQLELATLTNLAYAHYLAGDLSLATEITQKAYAAAGEWQSYKVRAYSALNLGTYNTELQQTGRARSYLQEALVLSQTQPELTADAVLRASILDSLGTLEHQDGNSESALELYTRAREIAQRDELPAVEALTQLNIGRMLGQLGRPEARAELERALELAVAACLFKEQFEAHTALAELTAAAADWRSAYRHQQELTRLKLHLLEGEHERQRKELRAELDLEQMRREGELSRERLKIEVAARERAEAETLERTQQLAQAQREVVLCLALAAEYRDSITGEHIKRVGTFAAHIALALGWSQADAELLMLASRLHDVGKIGIPDSILLKPGKLTEVEYVQMQAHTLIGSQILGQGNSALLKLAQTIALSHHERWNGEGYPYGLHGEAIPLAGRIVAVADVYDALIQRRPYKAAWTPEQAAAELSAQAGRHFDPALVEVALRILNDVHYSVDELKELGPPTVGPAAASLERELALRTQELQEARKNAGELLQLALSDSLTGLHNRRALELDLEQRIYPGAVDFYMTSLDLDSLKEINDSQGHQYGDQLLRQFALCLRQSCAAGKTYRIGGDEFAVLWNLDVTEQDIVQVLRRLPQNLRVTGQPGISFSYGSACYNRDAATAGDLLRVSDARMYRMKVGRRGEETDSIWFKEDH,failed
6,MLLSIITVAFRNLEGIVKTHASLAHLAQVEDISFEWIVVDGGSNDGTREYLENLNGIFNLRFVSEPDNGIYDAMNKGIAMAQGKFALFLNSGDIFHQNAANFVRKLKMQKDNVMITGDALLDFGDGHKIKRSAKPGWYIYHSLPASHQAIFFPVSGLKKWRYDLEYKVSSDYALAAKMYKAGYAFKKLNGLVSEFSMGGVSTTNNMELCADAKKVQRQILHVPGFWAELSWHLRQRTTSKTKALYNKV,failed
7,MLLTLEQELFTQFGYAAFKPGQKEVITNLLDGMNTLAVLPTGTGKSLCYQFVGQKLEGLTVIVSPLLSLMEDQMRQLQRQGIKGAVALNSTLQYSEKRYILAKMFQYDYLFLSPEMLLQQEVLSVLQRQKIALFVVDEAHCVYQWGVDFRPEYSKLDLVQKQLDFPLTLALTATATPVVQHAIIKQLFSHGSYQEVLSSVNRKNIGLFVKETSEKEEVLLDYLSKTAGKIIIYCATRNKTEQISQLIQAKTSFKVAYYHGGLEASERSRLQEQFIDNQIDILCATNAFGMGIDKPDVRGVIHFDLPDSLENYLQEIGRAGRDGQKSWALLLYKKGDEFIHRFFLEETRANRATLKSLIEGEEQAGLLENATELQQKWVQGYLAKDYSFEELEHRLEEKEKDRQAQLRGMLTYIETTTCRRTLIQTYFQEPIVKQSPETCCDNCALFFDIYQDSIVKSNKTSNQNEEGWRSKFLKLFKERD,failed
8,MLMKVAEFERLFRQAAGLDVDKNDLKRVSDFLRNKLYDLLAVAERNAKYNGRDLIFEPDLPIAKGLQETLQEFRRMDTALELKPVLDALAALPPLDLEVAEDVRNLLPELAGALVVAYARVLKELDPALKNPQTEHHERAERVFNLLL,not failed
9,MLMMLKSLRVNRILKLLLLAIFSSFMIIACGDRLTQYTVSQKISPSTECQVIQHQVGETQVCGQPQKIVALGPNVLEILLALDVQPVGFADHVPLHQGNYDNPSQQIPYLGERVTGELINLGLAYTPSIEALLKIKPDLIIGNELNRSQYEMLSKIAPTLLFPRFDAQPNLLAISKILGRSEKAKKILADSDQRLAIAQKALSDIVANHPQVLMLVSLGQSISEQLRFPRRDSFCDSLVTNLGFKLMSPSSLVPADKSVPPPLSIETLPQFNSADSIILLGANFSQVQLSDDKYFEPQMQKLKQQWSENAIAQSLTASKEGRVYFIPAYLCLGLPGPIGTELYLQELQKQLLSPQGK,failed
10,MLMNLPEILKNQKARARKFKPVKMSKRTELWYRQQLKQFVKMMTNDVERALQQPQGSFFMDDAKGFQAISAKALMKVLEKYEKSDRTSQAENIANGFVSRGDAQNHAEVSTNLKNQTGIDLSAYLRNSPNITEKVNALTAGNIQLIKSIRSQYLDKVQNAVMQAMVRGSLNKDLAAQIKDLGKTTEKRAMFIARDQSSKLNAALTQARHEEVGIKKYMWSASLDERVRESHAEKDGQIFEYANPPADTDHPGHDFNCRCVQIPVLDNNEQIVKNSPIVSQQEKQQMRSEWSDDFPDTIIDRKLGDATSHPLYENAKKGSIEDAYQLAKDLVTDDAVNKLKQLVGNKNAILIPVHAEEAVGQNMIPVAIATVLSKKLHIPVDLSIVQATKVSRTGGDGWHRLVYSPAFDGIVPKDKYAIILDDTQTQGGTLASLKGYIIKEKLLHLML,failed
11,MLMRTTRKISITDYGVYYYKTCRSIFDLLHESAEVASNVIHNPEGVLNISMPRSFGIFGFLPTLEKFYRIHPKIRVDVSISDSLVDFSENRFDAAVRLGVLSDSSLVARPLRPYKLVLCASPAYLARKGRPATPKDLIVHDCIATYFDEYRTAWNTLQNTWEFLCADGEFIKVSVPARMQVNDAQGVCIMVLSGQGIALLPEIIVSAHLTEGRLIELLPDYQIPSRPMSLVYRKNSLMPFKLKAFIGFLMDEFS,failed
12,MLNLQRMSLFIAVVDSGSFTAAAAASGQTKAVVSFNIRQLEKELGVTLLLRSTRRLTLTDAGVLFYQKGVNLLNAAKNLQDEVRASHSGLGGELRITTTSEFGEQVVIPVLAQFSQRHPDLRIRHMSSSHHADLIAERFDVAIRLGSLADSRYRAALISRFTILPVAAPQWLARNPVSSLESLAQAEWIIHERLPTPLRWTVTNNHGQHSRLEISKAGKISVDSARSLMAFALAGSGVALLPQWLVNTALEDGTLIHLLPDYHFPRQGIYAVYPDARHVSTKVRAFIDFLRSQWDCGEHAPSS,failed
13,MLNQFPKLRLTPFTTGIVAIFLFSLVIRFWNLGQFNQLVFDEVYYAKFASDYWLGNDFFPSHPPLSHYLIALAMGLGQVFPVNPEQVNDLTGAVRSTWSYRWLNALTGATIPLLLGAIAYLLTQRRLVTLLTMGLVALDGLFLVESRYALNNIYLVFFGLLGQALVLWHLRQEKLWQLILGGISLACAGSVKWNGFAFLLGVYLLWAIAWVKPFFNQGWTKGERQANSLQLLDRDGENNQGFLSRWLIISPLKFAIWLVLVPVITYSVIWIPHLLMNGEYASLEGFWRIQRETWQYHRRVGNSPDIHPYCSPWYSWLLMARPIAYFYQKSGQFGLINDVHAMANPILLWFSTGAMALLTGTVIWQKIRQFSSQTINAPLRGITLYIEVNYAVNLLPWLGISRCTFFYHYLPAYAFSILALALILETLLDSPRHSHNVIAWAVLTLVAIAFWYWLPVFLGLPLTPRGFALRMLFPSWI,failed
14,MLNSRRIVVVLPAYNAEKTLEMTYAEIPFEHVDHVLLVDDASRDRTAQVAERLGIKTIVHDRNKGYGANQKTCYRAALDLGADIVIMVHPDYQYTPKLITAMAAMIAYGEFDAVLGSRILGIGALKGGMPLYKYVANRVLTLVENLLLSHKLSEYHTGYRAFSRQVLEQLPLDANGDDFVFDNQMLAQIIWHGYRIGELSCPTKYFEDASSINFRRSVIYGLGVLGTALEFRLARMGLIRSGRFTPRNDQAAAQLEHHHHHH,not failed
15,MLNTSDIGKVFPSVTAVVEKGRLRFFAKAIGENNPIYTDEAAAKDAGYESLPMPPTFFFSLKMDVPNPFENYEKVGASLAKILHANQAFVYHQSVVAGDSLTFESHIADIYDKKAGALEFLVEKTKVSNQRGQHVADMTTTLVVRNLEHHHHHH,failed
16,MLPADGIVCFPGQTWEKVLSKVKKAVVFMDDRCSESLHWNGGAALLFEAGARNIKQFSSFEAGAQNEPKAVFVVSTVLKGRTADIIKDIISLSHFQYCVVFTTVPHSIHLLANNVNADLEGNPVFEQFEEKLCEWMGDMNYTAEVMHAPVVFAPLTEHLHLLPAFSNLFPLLDVDLESINEKRPEKKRFGSLMDMDVHSLPPGLQIQIKTLALTLNGLFEFISTREESFSVGPMSRLIATELANLPQAKNRRKTAPNKASVVFVDRTLDLTGAVGHHGDNLAEKILSVLPQLPGHVTDVQVDMLELTHLKPTTDTKGILAPGCLAQNQSATAKLLWETMLVAKQKEAVIEVRRQLVEAASKENLPIKMSLGRVTAEQLCSYVQLFRDSWGALESHSGVLQLGLAAAQALRHPALQRWDACLAFERLLLQALGDSDLAGVLKQLLPLIKSSESGTGSDLSMDDLLVLLVYVYSVAKEACSGGSEEEKQVEKVEQELIGALTLRLTRETTLSPLVQEVTGVSCPEELTMECAHSVLESMFGTLRGVARARDHLKNFSSVFTPGDGAHQDQHRYILILMIQDQHQ,failed
17,MLPFANYYISSPSVSEKNAINNNVNKRRKKKRAMMVYGGGGGGDDLAVVKAAAWAWYLRKEGKPIMREFDVTRAQRIPRPSRYKIEATKNMILSENRVLAENRVSSTKSPLWYTNYQFRGDQETYYSRLLDTYETKNISKRLNIDDSSFSTSLSSVLKHNGDDHHNHNRNDDYGFDDHGLLKKRNGSDSNTTTRSKTNNDKSYNGGFMKKVSKRSLWKGMIVMGPGSTVCGRSDDVASQAGRRTVKVAVAAEALVRSAASGSGKTQSGHC,failed
18,MLPNLNRIPQVEQYVLDYLDDLQCQHFEGDIATNYADRLSLATDNSVYQQLPQAILFPKTVADIVRITKLANLPEYQSISFTPRGGGTGTNGQSINNNIIVDLSRHMTA,failed
19,MLPPYNYMDNGTLKGISIDLLEAITEKMGKKVTREEIHLVSWTEGYQAALTRNNTVLFVTARTPEREQSFKWVGPIYSDKYVLFAKRDPGVTIDGPEDLKEYRIGVISDDLEHHHHHH,failed
